Data on 167 variants can be found in the RNAGym collection of RNA variant scans (doi:10.7554/elife.90254).

B1: OR4K15 (parent)
chain: GUUAACGGUCAUAGGCCAUGGAAACUAGGAGCACCAUUUCGCUGCCAGUGAAGAAAUGAACAAAGAAAAUCUGGGCCAGGCAGGCAUCAAAAGAAAUAGUCUUGCGCUCAACCAGAAAGUCUGUAAUCAUUUUAAGGGUA

The variants in this series derive from B1. The experiment in a line: self-cleavage, relative activity (ratio to wild type); higher = more cleavage; in vitro, sequencing; the parent is a self-cleaving ribozyme.
U12C A126G: the self-cleavage came out at 0.55.
For A13G A94U, the self-cleavage stood at 1.4.
In the case of A13G A94G it was 0.6; in that of U12A A91U, 1.64; in that of U12A A13G, 1.28.
With U12C A118U, the self-cleavage came out at 0.22.
For the variant U12C G44A, the self-cleavage came to 2.15.
The same measure for U12A A59G: 1.26.
The same measure for G15A A47G: 1.33.
Regarding A13G U97C, the self-cleavage was 0.78.
In the case of G14A A67G it was 1.66; in that of A13U U87A, 1.61.
In the case of U12A A90G it was 0.57; in that of A13G A54G, 0.81.
For the variant A13G A54U, the self-cleavage was found to be 0.74.
Consider A13U A114U, for which the self-cleavage turned out to be 0.07.
Consider A13U A114G, for which the self-cleavage is 0.09.
The same measure for A11U A110U: 1.19.
In the case of U12C A47G it was 1.3; in that of A11U C88A, 1.99.
Take A13U U102C: the self-cleavage was 1.56.
Turning to A13U A94G, the self-cleavage stood at 0.55.
With G14A A36G, the self-cleavage stood at 1.17.
The same measure for A13G A126G: 1.04.
The same measure for A13U G79A: 0.19; for A13U A18U: 0.56; for A11U U19A: 1.38.
As to A11U U19C, the self-cleavage was 1.85.
On to G14U A111G, for which the self-cleavage turned out to be 0.05.
On to U12C A13G, for which the self-cleavage came to 1.16.
Consider U12C A13U, for which the self-cleavage came out at 0.95.
As for G15C A86U, the self-cleavage is 1.92.
In the case of G14U A94G it was 1.84; in that of U12A A92G, 1.37.
In the case of A13U A63G it was 1.3; in that of A13U A63U, 1.13.
In the case of G14U A126G it was 1.1.
Regarding A11U U72C, the self-cleavage was 0.35.
A11U U72A: the self-cleavage worked out at 0.53.
The same measure for A13G C32U: 1.2.
As for U12G U100C, the self-cleavage was 1.76.
Consider A13G G53A, for which the self-cleavage is 1.11.
In the case of U12C U87A it was 0.96.
In the case of U12A A66G it was 0.9; in that of A13G U87C, 1.5.
Take A13U A64G: the self-cleavage worked out at 1.04.
The same measure for U12C A96G: 1.02; for A13G A23U: 1.32.
The same measure for U12A A60C: 1.18; for U12A A60G: 1.36.
The same measure for A13G C71U: 0.46; for U12C A54U: 1.51.
As for U12C A54G, the self-cleavage was 1.22.
G15A A92G: the self-cleavage was 1.65.
In the case of U12C A116G it was 0.73; in that of U12C A125G, 0.5; in that of U12A U49A, 0.48.
For the variant U12A U49C, the self-cleavage amounted to 1.59.
As to G15U A62G, the self-cleavage was 2.71.
On to A11U U133C, for which the self-cleavage amounted to 1.36.
The same measure for A11U U132C: 0.89.
The same measure for A11U U39C: 1.11; for A11U U39A: 1.34.
As to A13G A125U, the self-cleavage came to 0.88.
The same measure for G14A A51G: 1.18.
A11U A90G: the self-cleavage was 0.51.
The same measure for A13G C17U: 1.46; for U12C A114U: 0.14; for U12C A114G: 0.19.
U12C A94G: the self-cleavage worked out at 1.34.
Regarding G14A A33G, the self-cleavage amounted to 0.87.
In the case of G14C A18G it was 1.59; in that of G14A A118G, 0.59; in that of U12C A62G, 1.18.
Regarding G14U A92G, the self-cleavage was found to be 1.2.
In the case of U12A A67G it was 1.56; in that of A13G A98U, 1.29.
As to A13U A82G, the self-cleavage is 0.84.
For A13G U70C, the self-cleavage came out at 0.87.
The same measure for A13G A82G: 0.47.
The same measure for A13U A129G: 1.57; for G14A U19C: 1.44.
The same measure for A11U G75C: 0.16; for U12A U43A: 1.63; for U12A U43C: 0.49.
Turning to A13G U72A, the self-cleavage was 0.23.
For A13G U108A, the self-cleavage stood at 0.12.
With A13G U108C, the self-cleavage was 0.05.
As for A13G U108G, the self-cleavage was determined as 0.
On to G15A A36U, for which the self-cleavage amounted to 1.01.
Take A11U U122C: the self-cleavage was determined as 0.19.
The same measure for G14U A116U: 0.11; for G14U G48A: 1.52.
With U12C A89G, the self-cleavage came to 1.35.
The same measure for U12C A89U: 1.82.
In the case of A13G A110G it was 0.13.
In the case of A11U U87A it was 1.75.
Consider G14C A55G, for which the self-cleavage was found to be 1.34.
The same measure for G15C A94G: 0.33; for A13G G80C: 0.19.
As to A13G G80A, the self-cleavage was 0.43.
The same measure for A13G A78U: 0.6; for A13G A59G: 0.59.
In the case of A13U A36G it was 0.89; in that of A13G G41A, 0.97.
Consider A13G G41U, for which the self-cleavage is 1.28.
Regarding A13G G41C, the self-cleavage is 1.02.
Turning to G15A A111G, the self-cleavage was determined as 0.01.
In the case of U12C A91G it was 0.8; in that of U12C U100A, 0.63.
In the case of A13U U43C it was 1.24; in that of A11U G29A, 0.94; in that of G14U A33U, 1.38.
For the variant G14A A91G, the self-cleavage was found to be 1.67.
As for A13U U39C, the self-cleavage amounted to 1.04.
The same measure for A13G A86U: 1.21; for A13U A68C: 1.86.
The same measure for U12C U57C: 1.27.
In the case of A13G U57C it was 1.18; in that of A13G U57A, 1.24; in that of G14A U70C, 0.96.
On to U12G A33G, for which the self-cleavage worked out at 1.04.
On to G15A A27G, for which the self-cleavage worked out at 1.23.
In the case of A13U A125U it was 1.71; in that of A13U A116U, 0.25.
Consider G14A A18U, for which the self-cleavage is 0.99.
As to A11U A117G, the self-cleavage worked out at 1.41.
For the variant A13G C77U, the self-cleavage turned out to be 1.1.
The same measure for A13G G136A: 0.95; for G14C A118U: 0.78; for U12C A82U: 0.24.
U12C U132C: the self-cleavage was 0.2.
In the case of U12C U132A it was 0.67; in that of U12A A51G, 0.95.
Take U12A A51U: the self-cleavage was 1.05.
In the case of A13U A78G it was 0.2; in that of A13G A135G, 0.79.
Consider G14U A82U, for which the self-cleavage was determined as 0.13.
As to A13G A118U, the self-cleavage is 0.59.
Take A13G A118G: the self-cleavage amounted to 0.96.
For U12A A82U, the self-cleavage worked out at 0.3.
With G14A U26A, the self-cleavage is 1.2.
With C16A, the self-cleavage is 1.69.
For the variant A11U A114G, the self-cleavage came to 0.61.
A11U A114U: the self-cleavage amounted to 0.05.
The same measure for A13G A116U: 0.41; for G15A A94G: 1.73.
For U12C G28A, the self-cleavage is 1.29.
In the case of A13G A36G it was 0.49.
In the case of A13G U131C it was 1.01; in that of A13U A86G, 1.62.
Regarding G15C A67G, the self-cleavage is 1.63.
In the case of U12A U102A it was 1.08.
The same measure for U12A A96G: 1.43; for U12A A96U: 1.67.
With G14A U122A, the self-cleavage is 1.16.
With G14C A51G, the self-cleavage turned out to be 1.01.
Consider U12C A64G, for which the self-cleavage turned out to be 0.41.
The same measure for G14A A95G: 1.24; for U12G U102C: 1.11; for G14U A90G: 1.34.
With A11U A140U, the self-cleavage was 1.3.
Consider A11U U127C, for which the self-cleavage is 1.06.
In the case of A11U U97C it was 0.56; in that of A13G U100C, 1.34.
In the case of A13G U122C it was 0.76; in that of A13G U122A, 0.97.
